Reference: patent US20130005646A1 (Novo Nordisk, published 2013)
Values belong to the binder of their own block, whether it stands above or below them. Starred links: 1 amine or outer side, 2 acyl side, 3 side chain; linkers in the order of their positions; H or OH if unused. Positions of bridges follow the written chain, without caps; N, C: chain ends. Non-standard residues stand in square brackets, D forms with d. *: point of attachment. X1 = (S)‑4‑Carboxy‑4‑(19-carboxynonadecanoylamino)butyryl, O=C(O)CCCCCCCCCCCCCCCCCCC(=O)N[C@@H](CCC(=O)*)C(=O)O; C20 diacid = O=C(O)CCCCCCCCCCCCCCCCCCC(=O)*; C18 diacid = O=C(O)CCCCCCCCCCCCCCCCC(=O)*; γGlu = O=C(O)[C@H](CCC(=O)[*:2])N[*:1]; Orn = NCCC[C@H](N)C(=O)O; AEEA = NCCOCCOCC(=O)O

How the values were obtained:
Assay in all cases: cell-based or functional assay
[1] = molecular target: T1, human amylin 3(a) receptor (human calcitonin receptor + RAMP-3) (human, UniProt P30988 25-474; O60896 24-148)
T1 sequence (looked up) 1: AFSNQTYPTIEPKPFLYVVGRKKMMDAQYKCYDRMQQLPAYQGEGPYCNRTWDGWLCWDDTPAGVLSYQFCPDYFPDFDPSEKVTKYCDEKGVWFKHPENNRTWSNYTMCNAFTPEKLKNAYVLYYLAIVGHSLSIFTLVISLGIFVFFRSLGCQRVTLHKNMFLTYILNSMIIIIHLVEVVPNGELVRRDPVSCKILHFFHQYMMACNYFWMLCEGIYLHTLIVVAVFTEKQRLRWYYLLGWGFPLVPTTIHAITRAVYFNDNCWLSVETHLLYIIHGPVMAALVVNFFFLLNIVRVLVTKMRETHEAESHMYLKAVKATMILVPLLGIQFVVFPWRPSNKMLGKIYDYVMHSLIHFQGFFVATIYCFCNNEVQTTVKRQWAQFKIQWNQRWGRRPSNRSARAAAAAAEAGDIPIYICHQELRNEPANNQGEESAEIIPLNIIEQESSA
T1 sequence (looked up) 2: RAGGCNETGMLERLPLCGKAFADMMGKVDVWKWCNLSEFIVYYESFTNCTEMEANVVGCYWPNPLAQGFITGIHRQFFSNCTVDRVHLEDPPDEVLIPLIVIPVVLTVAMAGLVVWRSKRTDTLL

[2] = molecular target: T2, human calcitonin (a) receptor (human, UniProt P30988 25-474)
T2 sequence (looked up): T1 sequence (looked up) 1

[3] = molecular target: T3, rat amylin 3(a) receptor (rat calcitonin(a) receptor + rat RAMP3) (rat, UniProt P32214 25-516; Q9JJ73 23-147)
T3 sequence (looked up) 1: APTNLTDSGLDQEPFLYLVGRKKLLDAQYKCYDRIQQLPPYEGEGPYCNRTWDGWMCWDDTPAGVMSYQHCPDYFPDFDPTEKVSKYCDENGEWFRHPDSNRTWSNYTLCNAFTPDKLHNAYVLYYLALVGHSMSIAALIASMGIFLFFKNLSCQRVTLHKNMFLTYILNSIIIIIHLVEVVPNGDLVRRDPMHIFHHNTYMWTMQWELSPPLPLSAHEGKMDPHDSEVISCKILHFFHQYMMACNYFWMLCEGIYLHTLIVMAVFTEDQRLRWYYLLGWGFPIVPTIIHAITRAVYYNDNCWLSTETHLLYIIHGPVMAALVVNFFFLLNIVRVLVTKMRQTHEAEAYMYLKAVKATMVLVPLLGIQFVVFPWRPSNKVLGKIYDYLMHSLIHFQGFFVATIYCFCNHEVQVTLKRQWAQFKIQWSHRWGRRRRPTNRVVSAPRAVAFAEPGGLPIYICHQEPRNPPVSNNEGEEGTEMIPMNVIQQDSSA
T3 sequence (looked up) 2: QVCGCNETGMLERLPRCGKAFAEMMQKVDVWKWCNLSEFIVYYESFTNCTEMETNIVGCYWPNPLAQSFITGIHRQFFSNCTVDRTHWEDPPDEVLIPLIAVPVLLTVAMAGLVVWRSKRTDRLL

[4] = molecular target: T4, rat calcitonin (a) receptor (rat, UniProt P32214 25-516)
T4 sequence (looked up): T3 sequence (looked up) 1

B1: N-alpha-[(S)-4-Carboxy-4-(19-carboxynonadecanoylamino)butyryl]-Gly-[Arg1,Glu14,His17,Pro37]-pramlintide (peptide)
peptide: {C20 diacid-γGlu}-GRCNTATCATQRLAEFLHHSSNNFGPILPPTNVGSNTP-NH2
modifications: disulfide 3-8
SMILES: CC[C@H](C)[C@H](NC(=O)[C@@H]1CCCN1C(=O)CNC(=O)[C@H](Cc1ccccc1)NC(=O)[C@H](CC(N)=O)NC(=O)[C@H](CC(N)=O)NC(=O)[C@H](CO)NC(=O)[C@H](CO)NC(=O)[C@H](Cc1c[nH]cn1)NC(=O)[C@H](Cc1c[nH]cn1)NC(=O)[C@H](CC(C)C)NC(=O)[C@H](Cc1ccccc1)NC(=O)[C@H](CCC(=O)O)NC(=O)[C@H](C)NC(=O)[C@H](CC(C)C)NC(=O)[C@H](CCCNC(=N)N)NC(=O)[C@H](CCC(N)=O)NC(=O)[C@@H](NC(=O)[C@H](C)NC(=O)[C@@H]1CSSC[C@H](NC(=O)[C@H](CCCNC(=N)N)NC(=O)CNC(=O)CC[C@H](NC(=O)CCCCCCCCCCCCCCCCCCC(=O)O)C(=O)O)C(=O)N[C@@H](CC(N)=O)C(=O)N[C@@H]([C@@H](C)O)C(=O)N[C@@H](C)C(=O)N[C@@H]([C@@H](C)O)C(=O)N1)[C@@H](C)O)C(=O)N[C@@H](CC(C)C)C(=O)N1CCC[C@H]1C(=O)N1CCC[C@H]1C(=O)N[C@H](C(=O)N[C@@H](CC(N)=O)C(=O)N[C@H](C(=O)NCC(=O)N[C@@H](CO)C(=O)N[C@@H](CC(N)=O)C(=O)N[C@H](C(=O)N1CCC[C@H]1C(N)=O)[C@@H](C)O)C(C)C)[C@@H](C)O
Amylin receptor human EC50 [1]: 51.5 pM
CTa receptor human EC50 [2]: 45.5 pM
Amylin receptor rat EC50 [3]: 75 pM
CTa receptor rat EC50 [4]: 44 pM

B4: N-alpha-[2-(2-{2-[2-(2-{2-[(S)-4-Carboxy-4-(17-carboxyheptadecanoylamino)butyrylamino]ethoxy}ethoxy)acetylamino]ethoxy}ethoxy)acetyl]-D-Arg-D-Arg-[Orn1,Glu14,Hi … (peptide)
peptide: {C18 diacid-γGlu-AEEA-AEEA}-[dR][dR][Orn]CNTATCATQRLAEFLHRSSNNFGPILPPTNVGSNTY-NH2
modifications: disulfide 4-9
SMILES: CC[C@H](C)[C@H](NC(=O)[C@@H]1CCCN1C(=O)CNC(=O)[C@H](Cc1ccccc1)NC(=O)[C@H](CC(N)=O)NC(=O)[C@H](CC(N)=O)NC(=O)[C@H](CO)NC(=O)[C@H](CO)NC(=O)[C@H](CCCNC(=N)N)NC(=O)[C@H](Cc1c[nH]cn1)NC(=O)[C@H](CC(C)C)NC(=O)[C@H](Cc1ccccc1)NC(=O)[C@H](CCC(=O)O)NC(=O)[C@H](C)NC(=O)[C@H](CC(C)C)NC(=O)[C@H](CCCNC(=N)N)NC(=O)[C@H](CCC(N)=O)NC(=O)[C@@H](NC(=O)[C@H](C)NC(=O)[C@@H]1CSSC[C@H](NC(=O)[C@H](CCCN)NC(=O)[C@@H](CCCNC(=N)N)NC(=O)[C@@H](CCCNC(=N)N)NC(=O)COCCOCCNC(=O)COCCOCCNC(=O)CC[C@H](NC(=O)CCCCCCCCCCCCCCCCC(=O)O)C(=O)O)C(=O)N[C@@H](CC(N)=O)C(=O)N[C@@H]([C@@H](C)O)C(=O)N[C@@H](C)C(=O)N[C@@H]([C@@H](C)O)C(=O)N1)[C@@H](C)O)C(=O)N[C@@H](CC(C)C)C(=O)N1CCC[C@H]1C(=O)N1CCC[C@H]1C(=O)N[C@H](C(=O)N[C@@H](CC(N)=O)C(=O)N[C@H](C(=O)NCC(=O)N[C@@H](CO)C(=O)N[C@@H](CC(N)=O)C(=O)N[C@H](C(=O)N[C@@H](Cc1ccc(O)cc1)C(N)=O)[C@@H](C)O)C(C)C)[C@@H](C)O
Amylin receptor human EC50 [1]: 29.5 pM
CTa receptor human EC50 [2]: 690 pM
Amylin receptor rat EC50 [3]: 33 pM
CTa receptor rat EC50 [4]: 2570 pM

Results, then the binder that gave them:

Amylin receptor human EC50 [1]: 136 pM
CTa receptor human EC50 [2]: 180 pM
Amylin receptor rat EC50 [3]: 138 pM
CTa receptor rat EC50 [4]: 215 pM
B2: N-alpha-[(S)-4-Carboxy-4-(19-carboxynonadecanoylamino)butyryl]-[Glu14,His35]-pramlintide (peptide)
peptide: {C20 diacid-γGlu}-KCNTATCATQRLAEFLVHSSNNFGPILPPTNVGSHTY-NH2
modifications: disulfide 2-7
SMILES: CC[C@H](C)[C@H](NC(=O)[C@@H]1CCCN1C(=O)CNC(=O)[C@H](Cc1ccccc1)NC(=O)[C@H](CC(N)=O)NC(=O)[C@H](CC(N)=O)NC(=O)[C@H](CO)NC(=O)[C@H](CO)NC(=O)[C@H](Cc1c[nH]cn1)NC(=O)[C@@H](NC(=O)[C@H](CC(C)C)NC(=O)[C@H](Cc1ccccc1)NC(=O)[C@H](CCC(=O)O)NC(=O)[C@H](C)NC(=O)[C@H](CC(C)C)NC(=O)[C@H](CCCNC(=N)N)NC(=O)[C@H](CCC(N)=O)NC(=O)[C@@H](NC(=O)[C@H](C)NC(=O)[C@@H]1CSSC[C@H](NC(=O)[C@H](CCCCN)NC(=O)CC[C@H](NC(=O)CCCCCCCCCCCCCCCCCCC(=O)O)C(=O)O)C(=O)N[C@@H](CC(N)=O)C(=O)N[C@@H]([C@@H](C)O)C(=O)N[C@@H](C)C(=O)N[C@@H]([C@@H](C)O)C(=O)N1)[C@@H](C)O)C(C)C)C(=O)N[C@@H](CC(C)C)C(=O)N1CCC[C@H]1C(=O)N1CCC[C@H]1C(=O)N[C@H](C(=O)N[C@@H](CC(N)=O)C(=O)N[C@H](C(=O)NCC(=O)N[C@@H](CO)C(=O)N[C@@H](Cc1c[nH]cn1)C(=O)N[C@H](C(=O)N[C@@H](Cc1ccc(O)cc1)C(N)=O)[C@@H](C)O)C(C)C)[C@@H](C)O

Amylin receptor human EC50 [1]: 43 pM
CTa receptor human EC50 [2]: 55 pM
Amylin receptor rat EC50 [3]: 88 pM
CTa receptor rat EC50 [4]: 58 pM
B3: N-alpha-[(S)-4-Carboxy-4-(19-carboxynonadecanoylamino)butyryl]-[Arg1,Glu14,His17,Pro37]-pramlintide (peptide)
peptide: {C20 diacid-γGlu}-RCNTATCATQRLAEFLHHSSNNFGPILPPTNVGSNTP-NH2
modifications: disulfide 2-7
SMILES: CC[C@H](C)[C@H](NC(=O)[C@@H]1CCCN1C(=O)CNC(=O)[C@H](Cc1ccccc1)NC(=O)[C@H](CC(N)=O)NC(=O)[C@H](CC(N)=O)NC(=O)[C@H](CO)NC(=O)[C@H](CO)NC(=O)[C@H](Cc1c[nH]cn1)NC(=O)[C@H](Cc1c[nH]cn1)NC(=O)[C@H](CC(C)C)NC(=O)[C@H](Cc1ccccc1)NC(=O)[C@H](CCC(=O)O)NC(=O)[C@H](C)NC(=O)[C@H](CC(C)C)NC(=O)[C@H](CCCNC(=N)N)NC(=O)[C@H](CCC(N)=O)NC(=O)[C@@H](NC(=O)[C@H](C)NC(=O)[C@@H]1CSSC[C@H](NC(=O)[C@H](CCCNC(=N)N)NC(=O)CC[C@H](NC(=O)CCCCCCCCCCCCCCCCCCC(=O)O)C(=O)O)C(=O)N[C@@H](CC(N)=O)C(=O)N[C@@H]([C@@H](C)O)C(=O)N[C@@H](C)C(=O)N[C@@H]([C@@H](C)O)C(=O)N1)[C@@H](C)O)C(=O)N[C@@H](CC(C)C)C(=O)N1CCC[C@H]1C(=O)N1CCC[C@H]1C(=O)N[C@H](C(=O)N[C@@H](CC(N)=O)C(=O)N[C@H](C(=O)NCC(=O)N[C@@H](CO)C(=O)N[C@@H](CC(N)=O)C(=O)N[C@H](C(=O)N1CCC[C@H]1C(N)=O)[C@@H](C)O)C(C)C)[C@@H](C)O

Amylin receptor human EC50 [1]: 32.5 pM
CTa receptor human EC50 [2]: 47.5 pM
Amylin receptor rat EC50 [3]: 217 pM
CTa receptor rat EC50 [4]: 128 pM
B5: N-alpha-[(S)-4-Carboxy-4-(19-carboxynonadecanoylamino)butyryl]-[His1,Glu14,Arg17,Pro37]-pramlintide (peptide)
peptide: X1-HCNTATCATQRLAEFLRHSSNNFGPILPPTNVGSNTP-NH2
modifications: disulfide 2-7
SMILES: CC[C@H](C)[C@H](NC(=O)[C@@H]1CCCN1C(=O)CNC(=O)[C@H](Cc1ccccc1)NC(=O)[C@H](CC(N)=O)NC(=O)[C@H](CC(N)=O)NC(=O)[C@H](CO)NC(=O)[C@H](CO)NC(=O)[C@H](Cc1c[nH]cn1)NC(=O)[C@H](CCCNC(=N)N)NC(=O)[C@H](CC(C)C)NC(=O)[C@H](Cc1ccccc1)NC(=O)[C@H](CCC(=O)O)NC(=O)[C@H](C)NC(=O)[C@H](CC(C)C)NC(=O)[C@H](CCCNC(=N)N)NC(=O)[C@H](CCC(N)=O)NC(=O)[C@@H](NC(=O)[C@H](C)NC(=O)[C@@H]1CSSC[C@H](NC(=O)[C@H](Cc2c[nH]cn2)NC(=O)CC[C@H](NC(=O)CCCCCCCCCCCCCCCCCCC(=O)O)C(=O)O)C(=O)N[C@@H](CC(N)=O)C(=O)N[C@@H]([C@@H](C)O)C(=O)N[C@@H](C)C(=O)N[C@@H]([C@@H](C)O)C(=O)N1)[C@@H](C)O)C(=O)N[C@@H](CC(C)C)C(=O)N1CCC[C@H]1C(=O)N1CCC[C@H]1C(=O)N[C@H](C(=O)N[C@@H](CC(N)=O)C(=O)N[C@H](C(=O)NCC(=O)N[C@@H](CO)C(=O)N[C@@H](CC(N)=O)C(=O)N[C@H](C(=O)N1CCC[C@H]1C(N)=O)[C@@H](C)O)C(C)C)[C@@H](C)O
